Source: the supplement of paper PMC9112550, “Optimization of the antimicrobial peptide Bac7 by deep mutational scanning” (BMC Biology, 2022)

What follows are sequences tested on Escherichia coli TOP10 (assay: shrunken log2 fold change of peptide-encoding DNA abundance (4.5 h post-induction vs induction); higher = less antimicrobial activity (less host growth inhibition)). Settings: time post-induction: 4.5 h; library: site-saturation at positions 5, 18, 19, 20.
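Further: peptides expressed intracellularly from a pBAD plasmid library in pooled LB shake-flask culture, induced with 0.3% L-arabinose, DNA abundance read by NGS, three biological replicates, DESeq2 with apeglm shrinkage.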

Going from RRIRPRPPRLPRPRPRPMDYPRP to RRIRGRPPRLPRPRPRPPDYPRP, the “shrunken log2 fold change” value rises from -0.165 to 0.135.

Going from RRIRVRPPRLPRPRPRPTTGPRP to RRIRGRPPRLPRPRPRPQLEPRP, the “shrunken log2 fold change” value rises from 0.141 to 0.838.

Going from RRIRHRPPRLPRPRPRPKMPPRP to RRIRFRPPRLPRPRPRPSMVPRP, the “shrunken log2 fold change” value falls from -0.0334 to -0.509.

First: RRIRERPPRLPRPRPRPSQQPRP
Second: RRIRNRPPRLPRPRPRPRFTPRP
The “shrunken log2 fold change” value of the first is higher: 0.0678 for the first, -0.286 for the second.

Going from RRIRARPPRLPRPRPRPWSVPRP to RRIRYRPPRLPRPRPRPYMRPRP, the “shrunken log2 fold change” value falls from 0.0303 to -1.01.

Going from RRIRHRPPRLPRPRPRPYGNPRP to RRIRDRPPRLPRPRPRPLIKPRP, the “shrunken log2 fold change” value rises from -0.298 to 0.153.

Going from RRIRARPPRLPRPRPRPDDLPRP to RRIRCRPPRLPRPRPRPCNTPRP, the “shrunken log2 fold change” value falls from -0.00225 to -0.306.

First: RRIRIRPPRLPRPRPRPNGCPRP
Second: RRIRCRPPRLPRPRPRPPYYPRP
The “shrunken log2 fold change” value of the first is higher: -0.0792 for the first, -0.314 for the second.

Compared with RRIRNRPPRLPRPRPRPNLAPRP, RRIRCRPPRLPRPRPRPSWWPRP is higher in “shrunken log2 fold change” value: -0.137 for the first, 0.205 for the second.

RRIRNRPPRLPRPRPRPMCFPRP and RRIRHRPPRLPRPRPRPEFYPRP are within 0.2 log units of each other in “shrunken log2 fold change” value: -0.114 for the first, -0.0662 for the second.

RRIRLRPPRLPRPRPRPVQVPRP and RRIRFRPPRLPRPRPRPAMSPRP are within 0.2 log units of each other in “shrunken log2 fold change” value: -0.113 for the first, -0.302 for the second.

RRIRLRPPRLPRPRPRPDLFPRP and RRIRRRPPRLPRPRPRPFKPPRP are within 0.2 log units of each other in “shrunken log2 fold change” value: -0.000844 for the first, 0.174 for the second.

Going from RRIRGRPPRLPRPRPRPIAVPRP to RRIRSRPPRLPRPRPRPTYIPRP, the “shrunken log2 fold change” value falls from 0.892 to -0.598.

First: RRIRQRPPRLPRPRPRPFHAPRP
Second: RRIRFRPPRLPRPRPRPEDCPRP
The “shrunken log2 fold change” value of the first is lower: -0.117 for the first, 0.121 for the second.

RRIRSRPPRLPRPRPRPVVQPRP and RRIRKRPPRLPRPRPRPWPTPRP are within 0.2 log units of each other in “shrunken log2 fold change” value: -0.0812 for the first, 0.103 for the second.

RRIRTRPPRLPRPRPRPHHLPRP and RRIRCRPPRLPRPRPRPQKEPRP are within 0.2 log units of each other in “shrunken log2 fold change” value: 0.0331 for the first, -0.104 for the second.

RRIRFRPPRLPRPRPRPYLRPRP and RRIRWRPPRLPRPRPRPNSKPRP are within 0.2 log units of each other in “shrunken log2 fold change” value: -0.138 for the first, -0.218 for the second.

RRIRTRPPRLPRPRPRPVEPPRP and RRIRMRPPRLPRPRPRPETIPRP are within 0.2 log units of each other in “shrunken log2 fold change” value: 0.00744 for the first, 0.0625 for the second.

First: RRIRSRPPRLPRPRPRPPPNPRP
Second: RRIRDRPPRLPRPRPRPNGHPRP
The “shrunken log2 fold change” value of the first is higher: 0.707 for the first, -0.252 for the second.

First: RRIRLRPPRLPRPRPRPSWGPRP
Second: RRIRQRPPRLPRPRPRPNNSPRP
The “shrunken log2 fold change” value of the first is higher: 0.00407 for the first, -0.904 for the second.

Going from RRIRMRPPRLPRPRPRPDHFPRP to RRIRARPPRLPRPRPRPPLDPRP, the “shrunken log2 fold change” value rises from -0.0876 to 1.

First: RRIRFRPPRLPRPRPRPKKMPRP
Second: RRIRIRPPRLPRPRPRPDPYPRP
The “shrunken log2 fold change” value of the first is higher: 0.153 for the first, -0.555 for the second.

First: RRIRVRPPRLPRPRPRPAMDPRP
Second: RRIRTRPPRLPRPRPRPSIQPRP
The “shrunken log2 fold change” value of the first is higher: 0.21 for the first, -0.865 for the second.

RRIRQRPPRLPRPRPRPACFPRP and RRIRHRPPRLPRPRPRPRASPRP are within 0.2 log units of each other in “shrunken log2 fold change” value: 0.315 for the first, 0.286 for the second.

Compared with RRIRNRPPRLPRPRPRPMINPRP, RRIRMRPPRLPRPRPRPMIWPRP is higher in “shrunken log2 fold change” value: -0.346 for the first, 0.237 for the second.

Compared with RRIRQRPPRLPRPRPRPCMPPRP, RRIRWRPPRLPRPRPRPDAWPRP is higher in “shrunken log2 fold change” value: -0.27 for the first, 0.884 for the second.

RRIRLRPPRLPRPRPRPWRMPRP and RRIRIRPPRLPRPRPRPKCGPRP are within 0.2 log units of each other in “shrunken log2 fold change” value: 0.0332 for the first, -0.0309 for the second.

Going from RRIRIRPPRLPRPRPRPAITPRP to RRIRWRPPRLPRPRPRPNTRPRP, the “shrunken log2 fold change” value rises from -0.706 to 0.15.

First: RRIRWRPPRLPRPRPRPDSVPRP
Second: RRIRCRPPRLPRPRPRPSITPRP
The “shrunken log2 fold change” value of the first is higher: -0.0816 for the first, -0.641 for the second.

RRIRGRPPRLPRPRPRPIKHPRP and RRIRRRPPRLPRPRPRPTWKPRP are within 0.2 log units of each other in “shrunken log2 fold change” value: 0.171 for the first, 0.112 for the second.

First: RRIRMRPPRLPRPRPRPSNIPRP
Second: RRIRMRPPRLPRPRPRPDAMPRP
The “shrunken log2 fold change” value of the first is lower: -0.227 for the first, 2.44 for the second.

RRIRNRPPRLPRPRPRPYQGPRP and RRIRWRPPRLPRPRPRPDDRPRP are within 0.2 log units of each other in “shrunken log2 fold change” value: -0.00804 for the first, 0.171 for the second.

RRIRNRPPRLPRPRPRPVEWPRP and RRIRARPPRLPRPRPRPRQKPRP are within 0.2 log units of each other in “shrunken log2 fold change” value: 0.00664 for the first, 0.055 for the second.

First: RRIRRRPPRLPRPRPRPLHGPRP
Second: RRIRSRPPRLPRPRPRPEDLPRP
The “shrunken log2 fold change” value of the first is higher: 0.233 for the first, -0.0115 for the second.

RRIRRRPPRLPRPRPRPTKEPRP and RRIRFRPPRLPRPRPRPLAFPRP are within 0.2 log units of each other in “shrunken log2 fold change” value: -0.0782 for the first, -0.134 for the second.

RRIRYRPPRLPRPRPRPWLQPRP and RRIRERPPRLPRPRPRPMVIPRP are within 0.2 log units of each other in “shrunken log2 fold change” value: -0.216 for the first, -0.0351 for the second.

Going from RRIRCRPPRLPRPRPRPTWRPRP to RRIRPRPPRLPRPRPRPHAEPRP, the “shrunken log2 fold change” value falls from 1.4 to 0.206.

RRIRMRPPRLPRPRPRPLIMPRP and RRIRPRPPRLPRPRPRPHGEPRP are within 0.2 log units of each other in “shrunken log2 fold change” value: -0.0525 for the first, -0.159 for the second.

Going from RRIRMRPPRLPRPRPRPMNFPRP to RRIRIRPPRLPRPRPRPNSHPRP, the “shrunken log2 fold change” value falls from 0.032 to -0.866.

First: RRIRDRPPRLPRPRPRPQSWPRP
Second: RRIRYRPPRLPRPRPRPIHPPRP
The “shrunken log2 fold change” value of the first is higher: -0.0644 for the first, -0.418 for the second.

RRIRTRPPRLPRPRPRPAPDPRP and RRIRHRPPRLPRPRPRPVNLPRP are within 0.2 log units of each other in “shrunken log2 fold change” value: 0.15 for the first, -0.0241 for the second.

First: RRIRHRPPRLPRPRPRPLNFPRP
Second: RRIRERPPRLPRPRPRPIAEPRP
The “shrunken log2 fold change” value of the first is lower: -0.0479 for the first, 0.255 for the second.

Going from RRIRCRPPRLPRPRPRPHFMPRP to RRIRRRPPRLPRPRPRPCWKPRP, the “shrunken log2 fold change” value rises from -0.774 to 0.0297.

RRIRVRPPRLPRPRPRPIEIPRP and RRIRNRPPRLPRPRPRPQCEPRP are within 0.2 log units of each other in “shrunken log2 fold change” value: -0.00163 for the first, 0.0399 for the second.

RRIRWRPPRLPRPRPRPEVCPRP and RRIRKRPPRLPRPRPRPQRIPRP are within 0.2 log units of each other in “shrunken log2 fold change” value: 0.000572 for the first, 0.0286 for the second.

RRIRDRPPRLPRPRPRPTKWPRP and RRIRDRPPRLPRPRPRPEHQPRP are within 0.2 log units of each other in “shrunken log2 fold change” value: 0.0286 for the first, -0.012 for the second.

Going from RRIRARPPRLPRPRPRPCEVPRP to RRIRARPPRLPRPRPRPVVTPRP, the “shrunken log2 fold change” value falls from 3.46 to 0.254.

First: RRIRYRPPRLPRPRPRPDTSPRP
Second: RRIRFRPPRLPRPRPRPLYLPRP
The “shrunken log2 fold change” value of the first is higher: -0.0824 for the first, -0.826 for the second.

First: RRIRFRPPRLPRPRPRPSVVPRP
Second: RRIRERPPRLPRPRPRPFGCPRP
The “shrunken log2 fold change” value of the first is lower: -0.786 for the first, -0.0136 for the second.

Going from RRIRARPPRLPRPRPRPSKNPRP to RRIRARPPRLPRPRPRPNWPPRP, the “shrunken log2 fold change” value falls from 0.235 to 0.0205.

RRIRYRPPRLPRPRPRPLGKPRP and RRIRYRPPRLPRPRPRPCREPRP are within 0.2 log units of each other in “shrunken log2 fold change” value: -0.192 for the first, -0.152 for the second.

RRIRSRPPRLPRPRPRPCQPPRP and RRIRFRPPRLPRPRPRPLVEPRP are within 0.2 log units of each other in “shrunken log2 fold change” value: 0.0956 for the first, -0.0559 for the second.

RRIRIRPPRLPRPRPRPDCHPRP and RRIRNRPPRLPRPRPRPAKHPRP are within 0.2 log units of each other in “shrunken log2 fold change” value: -0.154 for the first, 0.027 for the second.

RRIRARPPRLPRPRPRPSCMPRP and RRIRARPPRLPRPRPRPGIRPRP are within 0.2 log units of each other in “shrunken log2 fold change” value: 0.29 for the first, 0.475 for the second.

RRIRSRPPRLPRPRPRPVTNPRP and RRIRIRPPRLPRPRPRPFMRPRP are within 0.2 log units of each other in “shrunken log2 fold change” value: -0.0242 for the first, 0.0516 for the second.

RRIRCRPPRLPRPRPRPASQPRP and RRIRWRPPRLPRPRPRPCTCPRP are within 0.2 log units of each other in “shrunken log2 fold change” value: -0.0515 for the first, 0.0236 for the second.

Compared with RRIRQRPPRLPRPRPRPAPNPRP, RRIRMRPPRLPRPRPRPQLSPRP is lower in “shrunken log2 fold change” value: 0.561 for the first, -0.102 for the second.

Going from RRIRFRPPRLPRPRPRPTRHPRP to RRIRPRPPRLPRPRPRPFSIPRP, the “shrunken log2 fold change” value falls from 0.519 to -0.164.

Compared with RRIRRRPPRLPRPRPRPVDMPRP, RRIRARPPRLPRPRPRPPQSPRP is higher in “shrunken log2 fold change” value: 0.0522 for the first, 0.993 for the second.

Going from RRIRARPPRLPRPRPRPHWTPRP to RRIRYRPPRLPRPRPRPKDGPRP, the “shrunken log2 fold change” value falls from -0.0108 to -0.613.

Going from RRIRKRPPRLPRPRPRPPWRPRP to RRIRHRPPRLPRPRPRPTFNPRP, the “shrunken log2 fold change” value falls from 0.734 to -0.612.

RRIRWRPPRLPRPRPRPWSRPRP and RRIRHRPPRLPRPRPRPGDWPRP are within 0.2 log units of each other in “shrunken log2 fold change” value: -0.132 for the first, -0.133 for the second.

RRIRIRPPRLPRPRPRPNSCPRP was tested, and the “shrunken log2 fold change” value was -0.184.
